Assay results: PMC8677749

Target: HBV core protein (Cp) dimer (Hepatitis B virus (strain NC_003977.1, subtype ayw?)) (UniProt P03146)
Experiment: NCP assembly, SEC-MALLS
Settings: 20 mM HEPES pH 7.5, 250 mM NaCl, 5 mM DTT, up to 0.15 M GuHCl, ~20 C; 1 nM RNA, Cp dimer titrated to 1.2 uM

HBV core protein (Cp) dimer (Hepatitis B virus (strain NC_003977.1, subtype ayw?)), sequence (P03146 whole entry): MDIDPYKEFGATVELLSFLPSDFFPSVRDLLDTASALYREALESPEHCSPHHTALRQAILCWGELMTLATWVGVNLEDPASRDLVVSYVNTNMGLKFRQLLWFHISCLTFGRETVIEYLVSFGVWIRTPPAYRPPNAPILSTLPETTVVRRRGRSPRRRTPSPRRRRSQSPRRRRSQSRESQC

With HBV JQ707375.1 gRNA (pgRNA) wild type as the substance, how does the binding signal (% RNA yield after RNase A) read?
Its binding signal (% RNA yield after RNase A) is 81.
